Biological target: FMDV protomer (VP0, VP3 and VP1) from full-length capsid precursor P1-2A processed by 3C protease (foot-and-mouth disease virus, strain O1 Manisa)
Experiment: sucrose density gradient sedimentation

Question: How did the reduction in pentamer formation with 17-DMAG, against no drug turn out when “FMDV protomer (VP0, VP3 and VP1) from full-length capsid precursor P1-2A processed by 3C protease (complex)” was run?
Answer: 50%

Question: What about the stoichiometry N of the same substance?
Answer: 5
